Experimental data taken from US20210260212A1 (MAGENTA THERAPEUTICS, published 2021).

Target: T1, human CD2 on the surface of cells (MOLT-4 human T lymphoblast cells); primary human T-cells; primary human NK … (human, UniProt P06729 25-351)
T1 sequence: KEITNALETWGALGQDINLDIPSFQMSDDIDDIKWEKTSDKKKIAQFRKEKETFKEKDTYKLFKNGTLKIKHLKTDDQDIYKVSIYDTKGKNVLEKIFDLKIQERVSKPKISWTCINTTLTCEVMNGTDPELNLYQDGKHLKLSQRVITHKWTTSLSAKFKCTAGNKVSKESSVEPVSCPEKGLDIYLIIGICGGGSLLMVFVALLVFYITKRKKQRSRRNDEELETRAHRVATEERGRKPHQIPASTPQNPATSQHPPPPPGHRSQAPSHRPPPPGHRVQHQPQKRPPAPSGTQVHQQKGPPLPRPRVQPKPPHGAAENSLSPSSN
Experiment: cell-based or functional assay

B1: anti-CD2-amanitin ADC: RPA 2.10 conjugated to amanitin with a cleavable linker, interchain, average drug-to-antibody ratio of 6 (other)
heavy: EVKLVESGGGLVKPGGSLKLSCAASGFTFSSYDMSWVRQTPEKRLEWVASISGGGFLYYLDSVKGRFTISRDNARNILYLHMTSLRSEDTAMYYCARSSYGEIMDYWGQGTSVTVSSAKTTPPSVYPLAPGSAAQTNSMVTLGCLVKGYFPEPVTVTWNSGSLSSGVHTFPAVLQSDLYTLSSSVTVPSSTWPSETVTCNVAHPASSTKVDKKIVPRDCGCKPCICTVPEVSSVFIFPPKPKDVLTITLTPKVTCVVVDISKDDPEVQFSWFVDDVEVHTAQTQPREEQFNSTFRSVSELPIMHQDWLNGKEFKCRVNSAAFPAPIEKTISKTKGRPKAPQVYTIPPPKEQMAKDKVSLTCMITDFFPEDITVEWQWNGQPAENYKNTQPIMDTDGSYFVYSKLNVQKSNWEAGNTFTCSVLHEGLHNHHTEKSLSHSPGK
light: DILLTQSPAILSVSPGERVSFSCRASQRIGTSIHWYQQRTTGSPRLLIKYASESISGIPSRFSGSGSGTDFTLSINSVESEDVADYYCQQSHGWPFTFGGGTKLEIERADAAPTVSIFPPSSEQLTSGGASVVCFLNNFYPKDINVKWKIDGSERQNGVLNSWTDQDSKDSTYSMSSTLTLTKDEYERHNSYTCEATHKTSTSPIVKSFNRNEC
- viability of primary human NK cells after 4 days (CellTiter-Glo), in vitro NK-cell killing assay, IC50: 5.2 pM
